These results are taken from publication PMC6555819, “Comprehensive study of nuclear receptor DNA binding provides a revised framework for understanding receptor specificity”.

B1: NRC3_random_hg19_241_o1 (dsDNA)
DNA 1: GCTGTAACGTGGGCTTCACTGTCGGGTCCAGCCCACGCGATTGACAGCGTAGAATGAAGG
DNA 2: CCTTCATTCTACGCTGTCAATCGCGTGGGCTGGACCCGACAGTGAAGCCCACGTTACAGC
B2: NRC3_wobSeed136_DR5_G11T_o1 (dsDNA)
DNA 1: GCTAGCCTAGTTCATTCAGGGGCCAGTATAGAAAGCGCGATTGACAGCGTAGAATGAAGG
DNA 2: CCTTCATTCTACGCTGTCAATCGCGCTTTCTATACTGGCCCCTGAATGAACTAGGCTAGC
B3: NRC3_wobSeed14_DR0_T23G_o1 (dsDNA)
DNA 1: GCCCTGCTAGGTCATGGTCAGCGAATCTACAGTATGGCGATTGACAGCGTAGAATGAAGG
DNA 2: CCTTCATTCTACGCTGTCAATCGCCATACTGTAGATTCGCTGACCATGACCTAGCAGGGC
B4: NRC3_wobSeed66_DR2_T16G_o1 (dsDNA)
DNA 1: GCAATACAGGGTCACGAGGCCAGAGTAGGTACGAATGCGATTGACAGCGTAGAATGAAGG
DNA 2: CCTTCATTCTACGCTGTCAATCGCATTCGTACCTACTCTGGCCTCGTGACCCTGTATTGC
B5: NRC3_wobSeed71_DR2_G12T_o1 (dsDNA)
DNA 1: GCCGAACGAGGTCATGAGTTGATAGCAAATGCCGATGCGATTGACAGCGTAGAATGAAGG
DNA 2: CCTTCATTCTACGCTGTCAATCGCATCGGCATTTGCTATCAACTCATGACCTCGTTCGGC
B6: NRC3_wobSeed97_DR4_A26C_o1 (dsDNA)
DNA 1: GCCAAACTAGGTCACGAAAGGTCAACGTCGAATGACGCGATTGACAGCGTAGAATGAAGG
DNA 2: CCTTCATTCTACGCTGTCAATCGCGTCATTCGACGTTGACCTTTCGTGACCTAGTTTGGC
B7: NRC3_wobSeed61_DR2_C7T_o1 (dsDNA)
DNA 1: GCCGTCTAAGGTCAGCAGGTCAGTGAAAGCGACGTGGCGATTGACAGCGTAGAATGAAGG
DNA 2: CCTTCATTCTACGCTGTCAATCGCCACGTCGCTTTCACTGACCTGCTGACCTTAGACGGC
B8: NRC3_wobSeed61_DR2_G15A_o1 (dsDNA)
DNA 1: B7 DNA 1 with T7C, G15A
DNA 2: B7 DNA 2 with C46T, A54G
B9: NRC3_wobSeed61_DR2_G23C_o1 (dsDNA)
DNA 1: B7 DNA 1 with T7C, G23C
DNA 2: B7 DNA 2 with C38G, A54G
B10: NRC3_wobSeed134_DR5_T8A_o1 (dsDNA)
DNA 1: GCGCTGCAAGGTCAACTGATGGTCAGCTAAAGCTCGGCGATTGACAGCGTAGAATGAAGG
DNA 2: CCTTCATTCTACGCTGTCAATCGCCGAGCTTTAGCTGACCATCAGTTGACCTTGCAGCGC
B11: NRC3_wobSeed49_DR2_A6G_o1 (dsDNA)
DNA 1: GCCAAGCTAGGTCAAGAGGTCAAAGTCCGCTTCCCGGCGATTGACAGCGTAGAATGAAGG
DNA 2: CCTTCATTCTACGCTGTCAATCGCCGGGAAGCGGACTTTGACCTCTTGACCTAGCTTGGC
B12: NRC3_wobSeed69_DR2_T16G_o1 (dsDNA)
DNA 1: GCAGTCAAAGTTCACGAGGTAACGTAAGATTCAGCTGCGATTGACAGCGTAGAATGAAGG
DNA 2: CCTTCATTCTACGCTGTCAATCGCAGCTGAATCTTACGTTACCTCGTGAACTTTGACTGC
B13: NRC3_wobSeed117_DR4_A29T_o1 (dsDNA)
DNA 1: GCCGTCAAAGTTCAACTAAGGTAACGTATAGCACGCGCGATTGACAGCGTAGAATGAAGG
DNA 2: CCTTCATTCTACGCTGTCAATCGCGCGTGCTATACGTTACCTTAGTTGAACTTTGACGGC
B14: NRC3_wobSeed117_DR4_G21T_o1 (dsDNA)
DNA 1: B13 DNA 1 with G21T, T29A
DNA 2: B13 DNA 2 with A32T, C40A
B15: NRC3_wobSeed85_DR3_C6G_o1 (dsDNA)
DNA 1: GCCGTGCAAGGTCAGAGAGGTCAGTGAATGCCGAGTGCGATTGACAGCGTAGAATGAAGG
DNA 2: CCTTCATTCTACGCTGTCAATCGCACTCGGCATTCACTGACCTCTCTGACCTTGCACGGC
B16: NRC3_wobSeed21_DR0_G17T_o1 (dsDNA)
DNA 1: GCCGTCAAAGTTCAAGTTAACGTAACAGAAAGCAGCGCGATTGACAGCGTAGAATGAAGG
DNA 2: CCTTCATTCTACGCTGTCAATCGCGCTGCTTTCTGTTACGTTAACTTGAACTTTGACGGC
B17: NRC3_wobSeed13_DR0_C7T_o1 (dsDNA)
DNA 1: GCCGTCTAAGGTCAAGGTCAGTGAAAGAGACTCGAAGCGATTGACAGCGTAGAATGAAGG
DNA 2: CCTTCATTCTACGCTGTCAATCGCTTCGAGTCTCTTTCACTGACCTTGACCTTAGACGGC
B18: NRC3_wobSeed109_DR4_C6T_o1 (dsDNA)
DNA 1: GCCGTTCAAGGTCATAGGAGGTCAGTGAAGACAGATGCGATTGACAGCGTAGAATGAAGG
DNA 2: CCTTCATTCTACGCTGTCAATCGCATCTGTCTTCACTGACCTCCTATGACCTTGAACGGC
B19: NRC3_wobSeed73_DR3_A25C_o1 (dsDNA)
DNA 1: GCCAAACTAGGTCACAGAGGTCAACGTCCGTGCGTAGCGATTGACAGCGTAGAATGAAGG
DNA 2: CCTTCATTCTACGCTGTCAATCGCTACGCACGGACGTTGACCTCTGTGACCTAGTTTGGC
B20: NRC3_wobSeed133_DR5_T16C_o1 (dsDNA)
DNA 1: GCCGTCCAAGGTCAACGCTAGGTCAGTGAAAGCATTGCGATTGACAGCGTAGAATGAAGG
DNA 2: CCTTCATTCTACGCTGTCAATCGCAATGCTTTCACTGACCTAGCGTTGACCTTGGACGGC
B21: NRC3_wobSeed76_DR3_G20T_o1 (dsDNA)
DNA 1: GCCCTACTGGGCCAAAAAGTTCATTGATGCCGATAAGCGATTGACAGCGTAGAATGAAGG
DNA 2: CCTTCATTCTACGCTGTCAATCGCTTATCGGCATCAATGAACTTTTTGGCCCAGTAGGGC
B22: NRC3_wobSeed39_DR1_G4C_o1 (dsDNA)
DNA 1: GCCCAACTAGGTCAAAGGACAGTGAAAGGCGACGTAGCGATTGACAGCGTAGAATGAAGG
DNA 2: CCTTCATTCTACGCTGTCAATCGCTACGTCGCCTTTCACTGTCCTTTGACCTAGTTGGGC
B23: NRC3_wobSeed136_DR5_T8G_o1 (dsDNA)
DNA 1: B2 DNA 1 with T8G, T11G
DNA 2: B2 DNA 2 with A50C, A53C
B24: NRC3_wobSeed17_DR0_T21G_o1 (dsDNA)
DNA 1: GCATATGTAGGTTAGGGTCAGTCAGAAAGTAGGGAAGCGATTGACAGCGTAGAATGAAGG
DNA 2: CCTTCATTCTACGCTGTCAATCGCTTCCCTACTTTCTGACTGACCCTAACCTACATATGC
B25: NRC3_wobSeed99_DR4_G16T_o1 (dsDNA)
DNA 1: GCTCTCGGAGGACACTAAAGGTCAGAGCTCGACATCGCGATTGACAGCGTAGAATGAAGG
DNA 2: CCTTCATTCTACGCTGTCAATCGCGATGTCGAGCTCTGACCTTTAGTGTCCTCCGAGAGC
B26: NRC3_random_hg19_374_o1 (dsDNA)
DNA 1: GCTAGACTGGCGACTGCTTGATTCATGGCTGAGTCTGCGATTGACAGCGTAGAATGAAGG
DNA 2: CCTTCATTCTACGCTGTCAATCGCAGACTCAGCCATGAATCAAGCAGTCGCCAGTCTAGC
B27: NRC3_random_hg19_315_o1 (dsDNA)
DNA 1: GCAGTCACACCTAACTGCAGGGAAGTCTATGAAATGGCGATTGACAGCGTAGAATGAAGG
DNA 2: CCTTCATTCTACGCTGTCAATCGCCATTTCATAGACTTCCCTGCAGTTAGGTGTGACTGC
B28: NRC3_random_hg19_149_o1 (dsDNA)
DNA 1: GCATGAAACCATGCTCGAGTGTGTGTGTGTGTGTATGCGATTGACAGCGTAGAATGAAGG
DNA 2: CCTTCATTCTACGCTGTCAATCGCATACACACACACACACACTCGAGCATGGTTTCATGC

Changes are numbered by the printed parent chain.

FXR:RXRa, sequence (Q96RI1 whole entry, chain 1 of 2): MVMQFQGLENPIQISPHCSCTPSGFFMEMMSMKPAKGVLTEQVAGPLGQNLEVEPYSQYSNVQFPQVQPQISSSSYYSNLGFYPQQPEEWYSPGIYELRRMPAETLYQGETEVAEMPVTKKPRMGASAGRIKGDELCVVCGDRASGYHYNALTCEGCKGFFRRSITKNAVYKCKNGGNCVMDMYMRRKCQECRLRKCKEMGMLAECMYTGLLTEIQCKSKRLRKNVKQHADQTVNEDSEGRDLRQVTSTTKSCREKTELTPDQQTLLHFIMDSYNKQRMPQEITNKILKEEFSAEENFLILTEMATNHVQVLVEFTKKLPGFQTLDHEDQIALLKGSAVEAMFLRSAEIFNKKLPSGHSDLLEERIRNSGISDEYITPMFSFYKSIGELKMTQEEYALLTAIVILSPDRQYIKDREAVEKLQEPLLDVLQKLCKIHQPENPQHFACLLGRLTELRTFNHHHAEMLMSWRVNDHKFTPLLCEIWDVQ
FXR:RXRa, sequence (P19793 whole entry, chain 2 of 2): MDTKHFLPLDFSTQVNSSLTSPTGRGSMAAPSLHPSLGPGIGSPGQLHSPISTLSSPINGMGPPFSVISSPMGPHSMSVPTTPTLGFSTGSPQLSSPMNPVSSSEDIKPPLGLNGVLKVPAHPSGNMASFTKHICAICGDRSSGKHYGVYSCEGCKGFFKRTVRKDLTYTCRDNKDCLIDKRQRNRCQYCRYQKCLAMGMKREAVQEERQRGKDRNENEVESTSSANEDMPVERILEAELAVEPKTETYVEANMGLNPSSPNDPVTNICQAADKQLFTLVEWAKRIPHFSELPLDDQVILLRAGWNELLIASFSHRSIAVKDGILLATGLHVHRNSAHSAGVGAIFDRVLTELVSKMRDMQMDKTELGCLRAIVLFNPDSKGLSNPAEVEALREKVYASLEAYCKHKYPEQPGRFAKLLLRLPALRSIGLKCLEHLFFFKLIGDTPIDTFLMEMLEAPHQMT
RARg:RXRa, sequence (P13631 whole entry, chain 1 of 2): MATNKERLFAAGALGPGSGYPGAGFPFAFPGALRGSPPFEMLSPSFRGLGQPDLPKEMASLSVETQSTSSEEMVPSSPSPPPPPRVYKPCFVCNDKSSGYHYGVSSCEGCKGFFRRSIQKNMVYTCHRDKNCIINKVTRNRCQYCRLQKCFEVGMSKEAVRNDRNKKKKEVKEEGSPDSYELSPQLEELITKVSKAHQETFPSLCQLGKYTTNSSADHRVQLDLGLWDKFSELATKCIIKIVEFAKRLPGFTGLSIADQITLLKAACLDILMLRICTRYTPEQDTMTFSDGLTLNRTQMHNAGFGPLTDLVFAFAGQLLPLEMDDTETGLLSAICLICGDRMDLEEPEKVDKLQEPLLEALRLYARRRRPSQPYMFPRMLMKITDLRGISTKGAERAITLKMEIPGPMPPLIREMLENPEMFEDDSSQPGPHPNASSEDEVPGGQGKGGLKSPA
RARg:RXRa, sequence (P19793 whole entry, chain 2 of 2): as the sequence (P19793 whole entry, chain 2 of 2) above
PPARa:RXRa, sequence (Q07869 whole entry, chain 1 of 2): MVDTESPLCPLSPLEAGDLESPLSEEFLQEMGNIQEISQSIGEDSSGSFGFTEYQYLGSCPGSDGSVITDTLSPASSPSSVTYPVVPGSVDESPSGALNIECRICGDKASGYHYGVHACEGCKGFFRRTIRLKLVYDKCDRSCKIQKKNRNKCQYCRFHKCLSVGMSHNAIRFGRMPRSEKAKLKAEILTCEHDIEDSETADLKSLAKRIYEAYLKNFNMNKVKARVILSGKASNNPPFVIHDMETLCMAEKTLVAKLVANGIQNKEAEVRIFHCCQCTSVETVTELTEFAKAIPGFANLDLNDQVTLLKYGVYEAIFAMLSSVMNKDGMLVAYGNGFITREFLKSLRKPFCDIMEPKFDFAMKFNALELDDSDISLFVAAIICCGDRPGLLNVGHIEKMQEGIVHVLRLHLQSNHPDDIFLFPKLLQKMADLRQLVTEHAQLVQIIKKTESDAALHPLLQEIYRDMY
PPARa:RXRa, sequence (P19793 whole entry, chain 2 of 2): as the sequence (P19793 whole entry, chain 2 of 2) above

The target of the first data set is PPARa:RXRa (Homo sapiens, UniProt Q07869;P19793 full;full). The data set is described as follows: no ligand; PBM; 270 nM : 90 nM RXRa; PBS pH 7.4, 2% milk, 0.02% Triton X-100, 1 mM DTT, BSA, 0.4 mg/ml salmon testes DNA. The settings on record: tags: GST kept;His cleaved; copies: 1;1; label: surface-attached array probe. In short, it runs like this:
(§1)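 Custom Agilent 4×180K protein-binding microarrays carried double-stranded probes. Their 34-nt variable regions held direct-repeat seeds, single-nucleotide variants, half-site ablations and random human genomic background sequences. Arrays were incubated 1 h with ligand-free nuclear receptor dimers in PBS pH 7.4, 2% milk, 0.02% Triton X-100, 1 mM DTT, 0.2 mg/mL BSA and 0.4 mg/ml salmon testes DNA. Antibodies against each partner (one per run) detected binding, and scanned fluorescence was regression-normalized. Binding z-scores use random background probes as reference.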
With B1, the binding signal is -0.77 PBM z-score against 500 random probes.

In the case of B2, the binding signal is 0.45 PBM z-score against 500 random probes.

In the case of B3, the binding signal is 3.44 PBM z-score against 500 random probes.

As for B4, the binding signal is 6.53 PBM z-score against 500 random probes.

Regarding B5, the binding signal was 6.51 PBM z-score against 500 random probes.

The target in the next data set is RARb:RXRa (Homo sapiens, UniProt P10826;P19793 full;full). Described as above. To be noted: tags: His kept;His cleaved; copies: 1;1; label: surface-attached array probe. In a few lines: as §1
RARb:RXRa, sequence (P10826 whole entry, chain 1 of 2): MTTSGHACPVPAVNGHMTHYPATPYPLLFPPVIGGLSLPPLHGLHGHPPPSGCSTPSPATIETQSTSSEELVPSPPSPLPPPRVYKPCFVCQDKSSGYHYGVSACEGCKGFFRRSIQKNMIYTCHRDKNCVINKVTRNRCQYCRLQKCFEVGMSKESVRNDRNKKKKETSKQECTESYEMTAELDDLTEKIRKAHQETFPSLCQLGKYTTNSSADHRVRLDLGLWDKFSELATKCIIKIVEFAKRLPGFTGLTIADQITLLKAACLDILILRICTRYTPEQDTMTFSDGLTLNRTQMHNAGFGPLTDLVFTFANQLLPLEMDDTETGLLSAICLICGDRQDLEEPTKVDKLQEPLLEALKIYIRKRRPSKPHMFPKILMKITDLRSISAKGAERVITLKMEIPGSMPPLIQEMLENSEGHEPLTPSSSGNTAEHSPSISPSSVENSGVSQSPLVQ
RARb:RXRa, sequence (P19793 whole entry, chain 2 of 2): as the sequence (P19793 whole entry, chain 2 of 2) above
Take B6: the binding signal was 6.08 PBM z-score against 500 random probes.

As for B7, the binding signal is 5.58 PBM z-score against 500 random probes.

Consider B8, for which the binding signal is 5.56 PBM z-score against 500 random probes.

Turning to B9, the binding signal is 5.58 PBM z-score against 500 random probes.

For B10, the binding signal is 5.55 PBM z-score against 500 random probes.

In the case of B11, the binding signal is 5.77 PBM z-score against 500 random probes.

Turning to B12, the binding signal was 5.54 PBM z-score against 500 random probes.

Consider B13, for which the binding signal was 5.55 PBM z-score against 500 random probes.

For the molecule B14, the binding signal was 5.53 PBM z-score against 500 random probes.

With B15, the binding signal is 5.58 PBM z-score against 500 random probes.

For the molecule B16, the binding signal is 5.46 PBM z-score against 500 random probes.

With B17, the binding signal is 6 PBM z-score against 500 random probes.

For B18, the binding signal is 5.82 PBM z-score against 500 random probes.

In the case of B19, the binding signal is 5.59 PBM z-score against 500 random probes.

With B20, the binding signal is 5.63 PBM z-score against 500 random probes.

The target in another data set is FXR:RXRa (Homo sapiens, UniProt Q96RI1;P19793 full;full). Described as above. The settings on record: tags: His kept;His cleaved; copies: 1;1; label: surface-attached array probe. In short, it runs like this:
as §1
B1: the binding signal is -0.46 PBM z-score against 500 random probes.

For B21, the binding signal was 0.49 PBM z-score against 500 random probes.

As for B22, the binding signal was 3.67 PBM z-score against 500 random probes.

As to B2, the binding signal is 0.31 PBM z-score against 500 random probes.

With B23, the binding signal is 7.79 PBM z-score against 500 random probes.

As to B24, the binding signal was 3 PBM z-score against 500 random probes.

For B3, the binding signal was 4.17 PBM z-score against 500 random probes.

For the molecule B25, the binding signal was 3.03 PBM z-score against 500 random probes.

As to B26, the binding signal is -0.55 PBM z-score against 500 random probes.

Take B4: the binding signal is 7.9 PBM z-score against 500 random probes.

In the case of B5, the binding signal is 7.78 PBM z-score against 500 random probes.

Consider B27, for which the binding signal is -0.43 PBM z-score against 500 random probes.

Consider B28, for which the binding signal is -0.44 PBM z-score against 500 random probes.

The next data set has as its target RARg:RXRa (Homo sapiens, UniProt P13631;P19793 full;full). Described as above. The settings on record: tags: His kept;His cleaved; copies: 1;1; label: surface-attached array probe. In a few lines:
as §1
Consider B22, for which the binding signal was 3.99 PBM z-score against 500 random probes.

With B23, the binding signal was 7.94 PBM z-score against 500 random probes.

On to B26, for which the binding signal was -0.21 PBM z-score against 500 random probes.

For B27, the binding signal is -0.2 PBM z-score against 500 random probes.

In the case of B28, the binding signal was -0.37 PBM z-score against 500 random probes.
